# From patent US20050214212A1
# How the values were obtained:
# [1] = target: glutathione-S-transferase fusion protein containing domains v3-v10 of human CD44 (human) (UniProt P16070); experiment: SPR (BIAcore 2000), GST/CD44v3-v10 immobilised on CM5
# [2] = target: CD44v6 (human CD44 variant isoform containing exon v6) on human tumour cells (human) (UniProt P16070); experiment: immunoreactivity assay, 186Re-MAG3-labelled MAb on fixed UM-SCC-11B cells
# [3] = target: glutathione-S-transferase fusion protein containing domains v3-v10 of human CD44 (human) (UniProt P16070); experiment: SPR (BIAcore 2000), GST/CD44v3-v10 immobilised on CM5, MAb 8-67 nM injected
# [4] = target: CD44v6 (human CD44 variant isoform containing exon v6) on human tumour cells (human) (UniProt P16070); experiment: immunoreactivity assay, 125I-labelled MAb on glutaraldehyde-fixed UM-SCC-11B cells, experiment 2
# [5] = target: CD44v6 (human CD44 variant isoform containing exon v6) on human tumour cells (human) (UniProt P16070); experiment: immunoreactivity assay on fixed UM-SCC-11B cells, linear extrapolation to infinite antigen excess, experiment 2
# [6] = target: CD44v6 (human CD44 variant isoform containing exon v6) on human tumour cells (human) (UniProt P16070); experiment: competitive cell ELISA (A431 cells, vs BIWA 1)
# Target sequence in this assay (P16070 21-742, stated change not applied): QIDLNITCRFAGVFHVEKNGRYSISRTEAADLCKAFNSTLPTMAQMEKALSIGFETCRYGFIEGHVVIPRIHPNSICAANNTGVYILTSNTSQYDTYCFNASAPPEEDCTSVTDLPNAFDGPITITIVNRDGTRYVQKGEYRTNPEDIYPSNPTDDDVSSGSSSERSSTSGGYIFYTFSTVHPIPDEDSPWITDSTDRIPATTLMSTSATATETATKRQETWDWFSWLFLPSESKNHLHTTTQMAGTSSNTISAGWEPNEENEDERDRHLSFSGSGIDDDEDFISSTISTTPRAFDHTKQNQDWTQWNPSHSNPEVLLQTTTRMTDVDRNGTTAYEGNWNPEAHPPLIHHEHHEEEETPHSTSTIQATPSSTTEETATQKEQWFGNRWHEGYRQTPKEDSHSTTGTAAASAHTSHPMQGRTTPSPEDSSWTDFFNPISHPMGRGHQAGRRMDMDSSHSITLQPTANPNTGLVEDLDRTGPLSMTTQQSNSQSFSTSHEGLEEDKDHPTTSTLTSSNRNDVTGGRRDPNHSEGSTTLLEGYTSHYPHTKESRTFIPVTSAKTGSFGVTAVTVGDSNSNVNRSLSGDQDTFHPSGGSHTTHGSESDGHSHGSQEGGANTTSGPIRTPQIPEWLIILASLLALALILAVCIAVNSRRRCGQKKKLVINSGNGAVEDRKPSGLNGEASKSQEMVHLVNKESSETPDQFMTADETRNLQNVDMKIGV
# Sequence of glutathione-S-transferase fusion protein containing domains v3-v10 of human CD44 (human) (P16070 267-604): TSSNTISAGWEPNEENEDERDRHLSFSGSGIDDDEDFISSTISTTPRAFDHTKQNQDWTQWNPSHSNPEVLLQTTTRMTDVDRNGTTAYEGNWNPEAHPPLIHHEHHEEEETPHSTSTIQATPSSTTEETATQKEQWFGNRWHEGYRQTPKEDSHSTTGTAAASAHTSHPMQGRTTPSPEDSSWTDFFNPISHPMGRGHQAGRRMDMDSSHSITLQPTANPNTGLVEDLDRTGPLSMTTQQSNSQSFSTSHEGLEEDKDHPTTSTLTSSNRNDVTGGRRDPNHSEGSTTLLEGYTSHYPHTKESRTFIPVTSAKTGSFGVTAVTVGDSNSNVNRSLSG
Substance,Kd relative to murine BIWA 1 [1],immunoreactive fraction [2] [%],Kd [3] [nM],koff [3] [s⁻¹],kon [3] [M⁻¹ s⁻¹],Binding to 5 × 10^6 cells (%) [4] [%],Binding Extrapolated (%) (immunoreactive fraction) [5],IC50 [6] [µg/mL]
"cMAb BIWA 2 (chimeric antibody: BIWA 1 variable regions, human gamma-1 and kappa constant regions)",0.7,> 75,0.24,4.1e-05,170000,80.5,79.9,
"hMAb BIWA 4 (bivatuzumab), humanised CDR-grafted antibody without framework modifications",,,,,,,,8.01
